{
  "source": "patent US20240181067A1",
  "about": "“TARGETED BIFUNCTIONAL DEGRADERS AND METHODS USING SAME” (YALE UNIVERSITY, priority 2021, published 2024)",
  "target": "streptavidin AF488 (Streptomyces avidinii, UniProt P22629)",
  "sequence (P22629 25-183)": "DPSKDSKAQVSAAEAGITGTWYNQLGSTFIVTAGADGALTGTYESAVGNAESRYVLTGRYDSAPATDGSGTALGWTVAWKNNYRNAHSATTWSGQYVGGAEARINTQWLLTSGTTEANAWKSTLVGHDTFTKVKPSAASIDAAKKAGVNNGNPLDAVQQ",
  "assay": "Degradation of a target protein using an LRP1 binding motif",
  "type": "cell-based",
  "conditions": "FIG. 12",
  "excerpt": "Some studies have been done on other bifunctional molecules comprising an LRP1 binding motif depicted in FIG. 2 and a biotin Target binding motif, wherein these bifunctional molecules also noncovalently bind streptavidin (FIG. 11).",
  "data": [
    {"substance": "Ac.Ac.Biotin Angiopep-2: \"the Ac.Ac.Biotin Angiopep-2 mediated degradation of streptavidin AF488\"", "values": [
      {"measurement": "degradation of streptavidin AF488", "result": "mediated degradation of streptavidin AF488"}
    ]}
  ]
}
